The values that follow come from patent publication US20080193453A1.

By Kd is commonly meant the concentration at which binding is half-saturated.

Where only a bound is given, the exact number is not on record here.

In assay [1] the target is Recombinant (His)6-tagged TfR1 ectodomain (human) (UniProt P02786). Nature of the assay: SPR (Biacore 2000), K'd, TfR-(His)6 captured at low density (120 RU) on anti-(His)6 chip. (In general: Surface plasmon resonance follows binding to a sensor surface in real time, without labels.)
The target is the same in assay [2]. Nature of the assay: SPR (Biacore 2000), K'd, TfR-(His)6 captured at high density (1650 RU) on anti-(His)6 chip.
Assay [3] concerns the target transferrin receptor (TfR, CD71) on cells (human) (UniProt P02786). Nature of the assay: cell-based or functional assay.

Sequence of transferrin receptor (TfR, CD71) on cells (human) (P02786 whole entry): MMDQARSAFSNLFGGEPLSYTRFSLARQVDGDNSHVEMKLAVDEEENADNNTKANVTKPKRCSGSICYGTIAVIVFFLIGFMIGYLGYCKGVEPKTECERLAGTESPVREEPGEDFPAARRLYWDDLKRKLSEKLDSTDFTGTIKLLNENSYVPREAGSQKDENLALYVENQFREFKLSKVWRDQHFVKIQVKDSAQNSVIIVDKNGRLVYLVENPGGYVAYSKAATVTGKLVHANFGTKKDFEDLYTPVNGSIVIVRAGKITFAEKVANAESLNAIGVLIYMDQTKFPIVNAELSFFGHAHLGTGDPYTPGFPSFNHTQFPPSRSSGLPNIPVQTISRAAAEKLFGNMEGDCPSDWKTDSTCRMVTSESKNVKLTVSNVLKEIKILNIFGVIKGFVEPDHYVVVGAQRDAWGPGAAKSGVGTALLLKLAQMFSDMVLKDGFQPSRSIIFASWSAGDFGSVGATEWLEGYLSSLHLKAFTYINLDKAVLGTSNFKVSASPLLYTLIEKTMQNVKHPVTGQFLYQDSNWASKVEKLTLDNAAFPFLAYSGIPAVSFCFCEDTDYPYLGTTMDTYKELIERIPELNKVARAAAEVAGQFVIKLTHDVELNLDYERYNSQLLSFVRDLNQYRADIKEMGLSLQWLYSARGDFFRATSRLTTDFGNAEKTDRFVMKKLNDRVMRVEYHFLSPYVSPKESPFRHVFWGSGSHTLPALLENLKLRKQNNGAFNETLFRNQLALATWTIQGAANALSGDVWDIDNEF
Sequence of Recombinant (His)6-tagged TfR1 ectodomain (human) (P02786 89-760 limits assumed, form in doubt): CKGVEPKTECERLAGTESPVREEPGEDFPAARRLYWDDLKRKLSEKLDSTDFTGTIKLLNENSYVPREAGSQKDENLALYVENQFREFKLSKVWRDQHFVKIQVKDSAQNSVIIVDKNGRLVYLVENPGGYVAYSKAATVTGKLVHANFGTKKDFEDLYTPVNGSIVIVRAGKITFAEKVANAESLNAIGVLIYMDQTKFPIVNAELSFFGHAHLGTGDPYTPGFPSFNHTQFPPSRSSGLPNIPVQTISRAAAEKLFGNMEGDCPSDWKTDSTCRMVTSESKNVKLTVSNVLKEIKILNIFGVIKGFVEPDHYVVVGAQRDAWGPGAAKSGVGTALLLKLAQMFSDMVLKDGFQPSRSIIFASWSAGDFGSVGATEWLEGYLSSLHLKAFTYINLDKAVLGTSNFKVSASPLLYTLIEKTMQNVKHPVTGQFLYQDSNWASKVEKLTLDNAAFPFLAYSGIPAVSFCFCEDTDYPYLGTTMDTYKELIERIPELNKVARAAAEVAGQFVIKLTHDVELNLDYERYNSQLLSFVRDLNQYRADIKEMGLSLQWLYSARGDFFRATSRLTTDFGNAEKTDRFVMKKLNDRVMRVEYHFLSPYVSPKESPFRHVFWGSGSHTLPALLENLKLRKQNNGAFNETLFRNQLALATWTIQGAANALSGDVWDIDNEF

Take “anti-human TfR (CD71) monoclonal antibody A24”: the Kd turned out to be 2.69 nM in assay [1] and 1.02 nM in assay [2]. The down-regulation of TfR expression in ex vivo cell cultures from chronic and acute forms of ATL in assay [3] is greater than 75%. In assay [3], this substance came in with a down-regulation of TfR expression on HTLV-1 infected cells from acute ATL donors in IL-15 or IL-2/IL-15 conditioned medium greater than 65%.
